Patent US7709606B2, “Interacting polypeptide comprising a heptapeptide pattern and a cellular penetration domain” (Ecole Normale Superieure de Lyon, priority 2003, dated 2010)
Positions count from the first letter of the chain named. Read-outs that look alike come from different tables or passages of the source.

How the values were obtained:
Tat = target: T1, Tat (Human immunodeficiency virus type 1 group M subtype B, UniProt P04608); assay: Tat functional test, LTR HIV-CAT reporter in HeLa cells; type: cell-based, HIV-1; settings: higher concentrations
T1 construct: expressed in transfected cells; host or cells: HeLa
T1 sequence (P04608 whole entry): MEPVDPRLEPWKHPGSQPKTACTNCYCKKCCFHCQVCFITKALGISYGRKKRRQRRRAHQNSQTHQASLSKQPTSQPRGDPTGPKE
Method: The effect of the 4 SHPTs on the transactivation of the HIV-1 promoter by Tat was evaluated by transitory expression experiments in HeLa cells.

GST-Rev = GST-Rev (Human immunodeficiency virus type 1 group M subtype B, UniProt P04618); settings: eluted with glutathione, immunoblot
Method: GXT-Rev was produced in bacteria and loaded onto an agarose-glutathion column. […] After rinsing, the proteins were eluted with glutathione. An aliquot of the feed, rinse and elution fractions was analyzed by immunoblot for GST-Rev (top graph) and for SHP using antibodies against GST or against FLAG respectively.
The SHPR activity was evaluated using the reporter construct pDM128 which included the coding sequence CAT and an RRE motif in an intron. Expression of Rev stimulated expression of CAT allowing an unspliced messenger to be exported to the cytoplasm. […] It was verified whether this inhibition was in fact directly correlated with a protein-protein interaction as predicted. To this end, both Rev and the SHPRs were produced in bacteria. […] Rev was expressed in fusion with GST and coupled to glutathione-agarose beads.

Jurkat cells = assay: intracellular entry, immunofluorescence in Jurkat cells; type: cell-based; settings: 2 μM for one hour, analyzed 24 h later
Method: Light transmission and fluorescence images are shown for representative cells.
The immunofluorescence tests were carried out with a primary anti-FLAG antibody in a dilution of 1:500 incubated for 2 hours and a secondary antibody coupled to the Alexa Fluor 488 fluorophore (Molecular Probes) diluted 1:1000, incubated for one hour.
To confirm that SHPs do indeed enter the cell, immunofluorescence analyses were also carried out. Jurkat cells were incubated with 1 μM of SHP for 4 hours and after washing twice, the cells were cultured for 24 hours.

HIV-1-LA1 = assay: antiviral test in PHA-P activated PBMC, RT activity; type: cell-based; settings: for anti-HIV activity, replication of HIV-1-LA1: PBMC activated by PHA-P, 7th day, in words; for Percentage inhibition, Mean: HIV-1 LA1, day 7; for reduction of HIV-1 replication: PBMC activated with PHA-P
Method: (§1) These viruses were amplified in vitro with umbilical blood mononuclear cells (UBMC) activated with PHA-P. The cell-free supernatant was centrifuged at […] for 10 minutes to eliminate soluble factors, and the residue was re-suspended in cell culture medium. Virus stocks were titrated using PBMC cells activated with PHA-P and 50% tissue culture infectious doses (TCID50) were calculated using Kärber's formula.
PBMC cells were pre-treated for 30 minutes by 5 concentrations of each molecule and infected with 75 TCID50 of the HIV-1-LA1 strain. AZT (1.6, 8, 40, 200 and 1000 nM) and indinavir (1.6, 8, 40, 200 and 1000 nM) were used as the control. […] The molecules were maintained throughout culture, and the cellular supernatant was harvested 7 days post infection and stored at −20° C. to measure viral replication by reverse transcriptase activity (RT) assay.
(§2) HIV replication was analyzed by assaying the RT activity in the supernatants from cell cultures using the RetroSys RT kit (Innovagen). The experiments were carried out 3 times and the results are expressed as the mean of the RT activity±the standard deviation (SD).
In a last step, it was examined whether SHPs were actually capable of inhibiting HIV-1 replication. This was carried out in PBMCs activated by PHA-P and in MDMs. […] The effects of different SHPs was thus tested at this time. AZT and indinavir were used as controls.

HIV-1/Ba-L = assay: antiviral test in monocyte-derived macrophages (MDM), RT activity; type: cell-based; settings: for inhibition of HIV replication: 2 μM on day 14; for Percentage inhibition, Mean / ED70 / ED90: MDMs, HIV-1/Ba-L
Method: as §1
The MDM cells were pre-treated for 30 minutes in 6 concentrations of different molecules and infected with 30000 TCID50 of the HIV-1/Ba-L strain. AZT (0.8, 4, 20, 100 and 500 nM) and indinavir (0.8, 4, 20, 100 and 500 nM) were used as the control. […] The molecules were maintained for 7 days post infection, and the cellular supernatant was harvested 7, 14 and 21 days post infection and stored at −20° C. to measure viral replication by reverse transcriptase activity (RT) assay.
as §2

Rev/RRE association = Rev/RRE association (Human immunodeficiency virus type 1 group M subtype B, UniProt P04618); settings: Rev produced in bacteria, RRE RNA probe
Method: To this end, gel retard experiments were carried out with a RNA molecule corresponding to the RRE element as the probe. The Rev protein produced in bacteria binds to this RNA and induces a non denaturing polyacrylamide gel migration retardation.

[1] = system: PBMCs (resting and activated lymphocytes); assay: penetration into PBMCs and stability in medium, anti-FLAG immunoblot; type: cell-based, human
Method: Mononuclear cells were prepared from peripheral blood, either directly (A) or after activation with PHA (phytohemagglutinin) and IL-2 (interleukin 2) (B), then incubated with 2 μM of SHPR-190. At the times indicated after addition of the interacting peptide, an aliquot of supernatant was analyzed by immunoblot using antibodies against FLAG (A, lines 1 to 4; B, lines 1 to 3). The cells were collected and lysed in RIPA buffer. The extract obtained was analyzed by immunoblot as described for the supernatant (A, lines 5 and 6; B, line 4). In portion A, the exposure times were different between lines 5 and 6 (30 s) and lines 1 to 4 (5 s).
To evaluate the capacity of SHPs to penetrate into cells, PBMCs were cultivated in medium supplemented with 2 μM of SHPR-190. At different times, an aliquot of supernatant was removed and the cells were collected. After washing several times, the cells were lysed in RIPA buffer and the supernatant as well as that which was extracted was analyzed by immunoblot using an antibody directed against the FLAG eiptope, which is present at the N-terminal end of SHP produced in bacteria.

Rev = Rev (Human immunodeficiency virus type 1 group M subtype B, UniProt P04618); settings: HeLa cells
Method: This type of indicative construct allowed an evaluation of the effect of Rev, which by causing transport towards the cytoplasm of the non spliced RNA, allowed expression of the CAT enzyme.
The CAT activity was measured using the CAT ELISA kit (Roche).
These various mutants were tested using a transitory expression system consisting of transfecting HeLa cells of the reporter plasmid having the CAT sequence associated with the RRE in the intronic position with expression vectors for the Rev protein and the SHPR protein. […] The separation between the two values was less than 20%.
These vectors were transfected with the reporter plasmid pDM128 and the expression vector Rev as described in the above sections (and in Roisin et al, JBC (2004) 279: 9208). The quantity of CAT protein is expressed as a % of that corresponding to transfection of parental SHPR. A value of more than 100 thus indicates a negative effect on the inhibiting power of SHPR and a lower value indicates an increase in this inhibiting property.

B1: SHPT-8: SUMO-1-heptapeptide-Tat PTD protein selected against Tat; heptapeptide Phe Thr Met Arg Gly Val Asp (SEQ ID NO: 38) (protein)
chain: MSDQEAKPSTEDLGDKKEGEYIKLKVIGQDSSEIHFKVKMTTHLKKLKESYCQRQGVPMNSLRFLFEGQRIADNHTPKELGMEEEDVIEVYQEQTARPPNPKKEIELGGGGSFTMRGVDPGRKKRRQRRRG
In the case of B1, the “Tat transactivation of the HIV-1 promoter” value (Tat) is reported as “slight reduction in transactivation”, the “co-elution with GST-Rev” value (GST-Rev) is reported as “no SHPT was present in fractions containing GST-Rev” and the “co-elution with GST-Rev” value (GST-Rev; listed as SHPR-8) is reported as “did not bind to the protein on the column”. The “immunofluorescence with antibody against FLAG” value (Jurkat cells) was “diffuse fluorescence”, the “anti-HIV activity, replication of HIV-1-LA1” value (HIV-1-LA1) was “did not have any anti-HIV activity” and the “Percentage inhibition, Mean” value (HIV-1-LA1; PBMCs, Dose 31 (nM)) was 0%. The “Percentage inhibition, Mean” value (HIV-1-LA1; PBMCs, Dose 62.5 (nM)) was 0%, the “Percentage inhibition, Mean” value (HIV-1-LA1; PBMCs, Dose 125 (nM)) was 0% and the “Percentage inhibition, Mean” value (HIV-1-LA1; PBMCs, Dose 250 (nM)) was 0%. For the same molecule, the “Percentage inhibition, Mean” value (HIV-1-LA1; PBMCs, Dose 500 (nM)) was 0%, the “Percentage inhibition, Mean” value (HIV-1-LA1; PBMCs, Dose 1000 (nM)) was 0% and the “Percentage inhibition, Mean” value (HIV-1-LA1; PBMCs, Dose 2000 (nM)) was 0%. For the same molecule, the “inhibition of HIV replication” value (HIV-1/Ba-L; MDM) was 69±6%, the “Percentage inhibition, Mean” value (HIV-1/Ba-L; Day 7, dose 62.5 (nM)) was 5% and the “Percentage inhibition, Mean” value (HIV-1/Ba-L; Day 7, dose 125 (nM)) was 39%. For the same molecule, the “Percentage inhibition, Mean” value (HIV-1/Ba-L; Day 7, dose 250 (nM)) was 78%, the “Percentage inhibition, Mean” value (HIV-1/Ba-L; Day 7, dose 500 (nM)) was 78% and the “Percentage inhibition, Mean” value (HIV-1/Ba-L; Day 7, dose 1000 (nM)) was 70%. The “Percentage inhibition, Mean” value (HIV-1/Ba-L; Day 7, dose 2000 (nM)) was 84%, the ED70 (HIV-1/Ba-L; Day 14) was 2050 nM and the ED90 (HIV-1/Ba-L; Day 14) was 5500 nM. For the same molecule, the “Percentage inhibition, Mean” value (HIV-1/Ba-L; Day 14, dose 62.5 (nM)) was 0%, the “Percentage inhibition, Mean” value (HIV-1/Ba-L; Day 14, dose 125 (nM)) was 2% and the “Percentage inhibition, Mean” value (HIV-1/Ba-L; Day 14, dose 250 (nM)) was 55%. For the same molecule, the “Percentage inhibition, Mean” value (HIV-1/Ba-L; Day 14, dose 500 (nM)) was 50%, the “Percentage inhibition, Mean” value (HIV-1/Ba-L; Day 14, dose 1000 (nM)) was 46% and the “Percentage inhibition, Mean” value (HIV-1/Ba-L; Day 14, dose 2000 (nM)) was 69%. For the same molecule, the “Percentage inhibition, Mean” value (HIV-1/Ba-L; Day 21, dose 62.5 (nM)) was 0%, the “Percentage inhibition, Mean” value (HIV-1/Ba-L; Day 21, dose 125 (nM)) was 5% and the “Percentage inhibition, Mean” value (HIV-1/Ba-L; Day 21, dose 250 (nM)) was 37%. The “Percentage inhibition, Mean” value (HIV-1/Ba-L; Day 21, dose 500 (nM)) was 21%, the “Percentage inhibition, Mean” value (HIV-1/Ba-L; Day 21, dose 1000 (nM)) was 20% and the “Percentage inhibition, Mean” value (HIV-1/Ba-L; Day 21, dose 2000 (nM)) was 59%. For the same molecule, the “effect on Rev/RRE association (gel retardation)” value (Rev/RRE association) was “no particular effect”.

B2: SHPR-190: SUMO-1-heptapeptide-Tat PTD protein against Rev; heptapeptide Asn Trp Leu Cys Cys Leu Asn (SEQ ID NO: 3) (protein)
chain: B1 chain with F113N, T114W, M115L, R116C, G117C, V118L, D119N
With B2 the “stability in the culture medium” value ([1]; 2 μM in PBMC culture supernatant) was “stable in the culture medium”, the “presence inside the cell” value ([1]; 2 μM, resting and activated lymphocytes) was “a fraction of the protein was present inside the cell” and the intracellular concentration ([1]; external concentration of 2 μM, lymphocyte assumed a sphere 12μ in diameter) was 15 µM. The “immunofluorescence with antibody against FLAG” value (Jurkat cells) was “diffuse fluorescence”, the “anti-HIV activity, replication of HIV-1-LA1” value (HIV-1-LA1) was “reduced replication” and the “reduction of HIV-1 replication” value (HIV-1-LA1; 1 μM) was 80±7%. For the same molecule, the “reduction of HIV-1 replication” value (HIV-1-LA1; 2 μM) was 100%, the ED70 (HIV-1-LA1; PBMCs, HIV-1-LA1, 7th day) was 720 nM and the ED90 (HIV-1-LA1; PBMCs, HIV-1-LA1, 7th day) was 927 nM. For the same molecule, the “Percentage inhibition, Mean” value (HIV-1-LA1; PBMCs, Dose 31 (nM)) was 0%, the “Percentage inhibition, Mean” value (HIV-1-LA1; PBMCs, Dose 62.5 (nM)) was 0% and the “Percentage inhibition, Mean” value (HIV-1-LA1; PBMCs, Dose 125 (nM)) was 0%. For the same molecule, the “Percentage inhibition, Mean” value (HIV-1-LA1; PBMCs, Dose 250 (nM)) was 0%, the “Percentage inhibition, Mean” value (HIV-1-LA1; PBMCs, Dose 500 (nM)) was 38% and the “Percentage inhibition, Mean” value (HIV-1-LA1; PBMCs, Dose 1000 (nM)) was 80%. The “Percentage inhibition, Mean” value (HIV-1-LA1; PBMCs, Dose 2000 (nM)) was 100%, the “inhibition of HIV replication” value (HIV-1/Ba-L; MDM) was 92±2% and the “anti-HIV activity, HIV-1/Ba-L replication” value (HIV-1/Ba-L; MDM, in words) was “dose-dependent”. For the same molecule, the “Percentage inhibition, Mean” value (HIV-1/Ba-L; Day 7, dose 62.5 (nM)) was 0%, the “Percentage inhibition, Mean” value (HIV-1/Ba-L; Day 7, dose 125 (nM)) was 34% and the “Percentage inhibition, Mean” value (HIV-1/Ba-L; Day 7, dose 250 (nM)) was 50%. For the same molecule, the “Percentage inhibition, Mean” value (HIV-1/Ba-L; Day 7, dose 500 (nM)) was 89%, the “Percentage inhibition, Mean” value (HIV-1/Ba-L; Day 7, dose 1000 (nM)) was 94% and the “Percentage inhibition, Mean” value (HIV-1/Ba-L; Day 7, dose 2000 (nM)) was 99%. The ED70 (HIV-1/Ba-L; Day 14) was 1040 nM, the ED90 (HIV-1/Ba-L; Day 14) was 1450 nM and the “Percentage inhibition, Mean” value (HIV-1/Ba-L; Day 14, dose 62.5 (nM)) was 0%. For the same molecule, the “Percentage inhibition, Mean” value (HIV-1/Ba-L; Day 14, dose 125 (nM)) was 0%, the “Percentage inhibition, Mean” value (HIV-1/Ba-L; Day 14, dose 250 (nM)) was 0% and the “Percentage inhibition, Mean” value (HIV-1/Ba-L; Day 14, dose 500 (nM)) was 66%. For the same molecule, the “Percentage inhibition, Mean” value (HIV-1/Ba-L; Day 14, dose 1000 (nM)) was 70%, the “Percentage inhibition, Mean” value (HIV-1/Ba-L; Day 14, dose 2000 (nM)) was 92% and the ED70 (HIV-1/Ba-L; Day 21) was over 2000 nM. The ED90 (HIV-1/Ba-L; Day 21) was over 2000 nM, the “Percentage inhibition, Mean” value (HIV-1/Ba-L; Day 21, dose 62.5 (nM)) was 0% and the “Percentage inhibition, Mean” value (HIV-1/Ba-L; Day 21, dose 125 (nM)) was 0%. For the same molecule, the “Percentage inhibition, Mean” value (HIV-1/Ba-L; Day 21, dose 250 (nM)) was 0%, the “Percentage inhibition, Mean” value (HIV-1/Ba-L; Day 21, dose 500 (nM)) was 28% and the “Percentage inhibition, Mean” value (HIV-1/Ba-L; Day 21, dose 1000 (nM)) was 50%. The “Percentage inhibition, Mean” value (HIV-1/Ba-L; Day 21, dose 2000 (nM)) was 60%, the “inhibition of the function of Rev (CAT from pDM128)” value (Rev) was “effective inhibitors of the function of Rev” and the “effect on Rev/RRE association (gel retardation)” value (Rev/RRE association) was “did not inhibit this association”.
